# From patent US20220154156A1, “PROTEINS AND METHODS FOR DISRUPTING BACTERIAL COMMUNICATION” (REGENTS OF THE UNIVERSITY OF MINNESOTA, priority 2019, published 2022)
# Key:
# [1] = system: bacterial communities at the surface of the steel; assay: 16S rDNA analysis of microbial community on steel coupons; conditions: treated coupons
# Procedure: After photo imaging, on each of the coupon surface, all material including biofilm and tubercles were scraped into a sterile 50 ml polypropylene centrifuge tube (Corning, N.Y., USA) using a steel scraper. A 0.5 g subsample of the surface material from each coupon sample was used for DNA extraction using PowerSoil DNA kit (MoBio Laboratories). The extracted DNA was used to sequence the V4 region of 16S rDNA gene and describe changes in the composition of bacterial communities. DNA samples were quantified with a NanoDrop 2000 Spectrophotometer (Thermo Scientific, Waltham, Mass. USA) and then sent overnight to the University of Minnesota Genomics Center for 16S rDNA sequencing. 30 samples were multiplexed into a single run of Illumina MiSeq paired-end 300 cycles, which was expected to generate a total of 15 million sequences of the 254 bp portions of the 16S rDNA V4 region.
# Sequence data were processed and analyzed using the MOTHUR program. To ensure high quality data for analysis, sequence reads containing ambiguous bases, homopolymers >7 bp, more than one mismatch in the primer sequence, or an average per base quality score below 25 were removed. Sequences that only appear once in the total set were assumed to be a result of sequencing error and removed from the analysis. Chimeric sequences were also removed using the UCHIME algorithm within the MOTHUR program. […]
# [2] = system: Clavibacter michiganensis subsp. Nebraskensis; assay: Corn infection assay; format: in vivo; conditions: lactonase spray
# Procedure: FIG. 31 show control of plant infections by a single spraying of 1 mL of lactonase solution (10 mg/mL) on corn leaves. The Viking maize seed (40-30UP) were grown in Euro pot (diameter 8 inch) with sterilized soil mixture (50 standard soil/50 Germinating Mix) in a green house under diurnal conditions with 16 hours lights at 22° C. and 8 hours dark at 18° C. Plant leaves were infected with Clabibacter michiganensis subsp. nebraskensis by dipping the clipped leaf into cell suspension ([…]). Shown are duplicates plants for the control treatment (left) and lactonase treatment (right).
# Moreover, we specifically established a corn infection assay using the pathogen Clavibacter michiganensis subsp. Nebraskensis.
# [3] = system: suspension soil microbial community; assay: Effect of lactonase on suspension soil community; format: cell-based; conditions: 0.5 mg/mL, days 3 and 7
# Procedure: Inoculum were prepared by re-suspending about 5 grams of soil (taken outside GortnerLab building, Saint Paul Campus, Saint Paul, Minn., USA) in 40 mL of water. After a homogenous mixture was achieved, the suspension was lightly centrifuged (5 min, 500×g) and 200 uL of the cloudy supernatant was added to 30 mL of LB media and allowed to grow overnight. This inoculum was used to inoculate 15× diluted LB media (in water) cultures. […] Samples were collected for DNA extraction after 3 and 7 days.
# All samples were processed using Mothur v1.35.1. For each sample, 1,250 sequences were used for final analyses. […] Analysis of similarity (ANOSIM) and analysis of molecular variances (AMOVA) were used to evaluate the beta diversity (community composition) among samples using Bray-Curtis dissimilarity matrices (BC) (Bray & Curtis 1957; Clarke 1993). Ordination of Bray-Curtis matrices was performed using principal coordinate analysis (PCoA) to further analyze diversity of sample days throughout the tank (Anderson & Willis 2003). To visualize the distribution of taxonomies and diversities in microbial communities among the samples, R v3.3.1 was used to conduct the normalized relative abundance and OTUs at genus level^45. All of alpha values evaluated at α=0.05.
molecule,measurement,setting,value
"SsoPox W263I: improved variant of the hyperthermostable lactonase SsoPox from Sulfolobus solfataricus, exhibiting higher catalytic rates (protein, UniProt Q97VT7 1-314, looked up, variant W263I) Aryldialkylphosphatase: MRIPLVGKDSIESKDIGFTLIHEHLRVFSEAVRQQWPHLYNEDEEFRNAVNEVKRAMQFGVKTIVDPTVMGLGRDIRFMEKVVKATGINLVAGTGIYIYIDLPFYFLNRSIDEIADLFIHDIKEGIQGTLNKAGFVKIAADEPGITKDVEKVIRAAAIANKETKVPIITHSNAHNNTGLEQQRILTEEGVDPGKILIGHLGDTDNIDYIKKIADKGSFIGLDRYGLDLFLPVDKRNETTLRLIKDGYSDKIMISHDYCCTIDIGTAKPEYKPKLAPRWSITLIFEDTIPFLKRNGVNEEVIATIFKENPKKFFS","abundance of Burkholderiales, Pseudomonadales and Rhodospirillales",[1],significantly reduced
same,symptoms of infection in corn plants,[2],protected the plant from showing any symptoms of infection
same,composition of suspension community vs inactive variant,[3],communities are significantly different
